One data set concerns the target CsMYC2-MBP (Citrus sinensis (Newhall orange), UniProt V4SX11 1-519). Description: EMSA; BLI: PBS, 100 nM biotin probe on SA sensors, CsMYC2-His 62.5-1000 nM, 1:1 fit. DNA pull-down: probe bound to beads in 10 mM Tris-HCl pH 7.5, 1 mM EDTA, 1 M NaCl, 0.1% Tween-20 at RT, then protein 1 h on ice. EMSA: as in Yue et al. 2019, buffer not given. To be noted: protein: recombinant; tags: MBP (pMAL-C2X); chain copies: 2; label: 3' biotin. For orientation: Mobility shift assays separate free from complexed probe on a gel.

The next data set has as its target CsMYC2-His (Citrus sinensis (Newhall orange), UniProt V4SX11 1-519). Description: BLI; BLI: PBS, 100 nM biotin probe on SA sensors, CsMYC2-His 62.5-1000 nM, 1:1 fit. DNA pull-down: probe bound to beads in 10 mM Tris-HCl pH 7.5, 1 mM EDTA, 1 M NaCl, 0.1% Tween-20 at RT, then protein 1 h on ice. EMSA: as in Yue et al. 2019, buffer not given. To be noted: protein: recombinant; tags: His (pET30A); chain copies: 2; label: 3' biotin. (In general: BLI is a label-free optical method that tracks binding on a fibre tip over time.)

Sequence of CsMYC2-MBP (V4SX11 entry or part of it): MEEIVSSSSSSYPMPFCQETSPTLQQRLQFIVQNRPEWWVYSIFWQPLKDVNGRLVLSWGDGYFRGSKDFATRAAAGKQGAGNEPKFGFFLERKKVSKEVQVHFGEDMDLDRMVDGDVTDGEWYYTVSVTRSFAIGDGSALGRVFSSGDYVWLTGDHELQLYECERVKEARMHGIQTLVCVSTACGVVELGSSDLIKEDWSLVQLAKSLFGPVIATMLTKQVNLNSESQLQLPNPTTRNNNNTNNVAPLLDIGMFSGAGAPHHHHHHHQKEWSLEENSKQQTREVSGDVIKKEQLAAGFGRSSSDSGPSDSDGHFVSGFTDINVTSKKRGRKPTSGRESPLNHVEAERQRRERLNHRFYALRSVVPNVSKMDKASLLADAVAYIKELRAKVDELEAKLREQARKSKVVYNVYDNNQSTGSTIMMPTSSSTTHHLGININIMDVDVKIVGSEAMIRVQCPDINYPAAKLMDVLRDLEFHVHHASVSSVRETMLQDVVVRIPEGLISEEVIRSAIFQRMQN
Sequence of CsMYC2-His (V4SX11 entry or part of it): as above

B1: CsBCH-probe (dsDNA)
DNA 1: AATTTCGAATCTAACAAATGTTTCGTTGATAT
DNA 2: ATATCAACGAAACATTTGTTAGATTCGAAATT
For B1, in the data set with CsMYC2-MBP, the binding result was “binds”.

B2: CsPSY-probe (dsDNA)
DNA 1: AAAACTTCAATTGATACTCTTCCACTAATTCT
DNA 2: AGAATTAGTGGAAGAGTATCAATTGAAGTTTT
With B2, the binding result in the data set with CsMYC2-MBP was “binds”.

B3: CsCCD4b-probe (dsDNA)
DNA 1: GTACCATACAACTGTGGCACCATAGCTGGATC
DNA 2: GATCCAGCTATGGTGCCACAGTTGTATGGTAC
The Kd is the concentration at which binding is half-saturated. B3: in the data set with CsMYC2-His, the Kd was 58 nM.

B4: CsMPK6-probe (dsDNA)
DNA 1: AGCTCTATGTAACAACTGGGATCTATTTGAAA
DNA 2: TTTCAAATAGATCCCAGTTGTTACATAGAGCT
Consider B4, for which the binding result with CsMYC2-MBP is on record as “binds”.

B5: CsLCYb-probe (dsDNA)
DNA 1: CGACAGTTGGACCACTAGCTTCGTGACCGTTGT
DNA 2: ACAACGGTCACGAAGCTAGTGGTCCAACTGTCG
As for B5, the binding result with CsMYC2-MBP is recorded as “binds”.

The record behind these values is publication PMC10052374, “Jasmonate activates a CsMPK6-CsMYC2 module that regulates the expression of β-citraurin biosynthetic genes and fruit coloration in orange (Citrus sinensis)”.
